Measurements taken from patent US20110166062A1 (INDIANA UNIVERSITY RESEARCH AND TECHNOLOGY, published 2011).
Bridges are numbered along the chain shown (N, C = ends). Where no end group is shown, it is not given here.

T1: GIP receptor (UniProt P48546 22-466)
T1 sequence (looked up): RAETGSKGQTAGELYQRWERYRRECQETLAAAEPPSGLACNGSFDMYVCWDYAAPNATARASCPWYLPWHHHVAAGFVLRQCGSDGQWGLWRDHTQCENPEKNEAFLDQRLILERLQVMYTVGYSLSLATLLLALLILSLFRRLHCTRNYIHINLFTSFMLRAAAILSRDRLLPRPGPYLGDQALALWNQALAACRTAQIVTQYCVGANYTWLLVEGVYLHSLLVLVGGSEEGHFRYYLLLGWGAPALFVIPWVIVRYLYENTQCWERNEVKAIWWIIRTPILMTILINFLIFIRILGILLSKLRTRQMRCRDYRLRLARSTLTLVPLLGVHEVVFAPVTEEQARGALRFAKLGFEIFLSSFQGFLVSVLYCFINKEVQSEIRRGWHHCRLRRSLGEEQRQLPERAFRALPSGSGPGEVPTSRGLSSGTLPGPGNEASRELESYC

B1: mt-62 (peptide)
peptide: HSQGTFTSDYSIYLDEIHQKEFIAWLMNT-NH2
modifications: lactam 16-20; N-terminus assumed
SMILES: CC[C@H](C)[C@H](NC(=O)[C@H](Cc1ccccc1)NC(=O)[C@H](CCC(=O)O)NC(=O)[C@@H]1CCCCNC(=O)CC[C@H](NC(=O)[C@H](CC(=O)O)NC(=O)[C@H](CC(C)C)NC(=O)[C@H](Cc2ccc(O)cc2)NC(=O)[C@@H](NC(=O)[C@H](CO)NC(=O)[C@H](Cc2ccc(O)cc2)NC(=O)[C@H](CC(=O)O)NC(=O)[C@H](CO)NC(=O)[C@@H](NC(=O)[C@H](Cc2ccccc2)NC(=O)[C@@H](NC(=O)CNC(=O)[C@H](CCC(N)=O)NC(=O)[C@H](CO)NC(=O)[C@@H](N)Cc2c[nH]cn2)[C@@H](C)O)[C@@H](C)O)[C@@H](C)CC)C(=O)N[C@@H]([C@@H](C)CC)C(=O)N[C@@H](Cc2c[nH]cn2)C(=O)N[C@@H](CCC(N)=O)C(=O)N1)C(=O)N[C@@H](C)C(=O)N[C@@H](Cc1c[nH]c2ccccc12)C(=O)N[C@@H](CC(C)C)C(=O)N[C@@H](CCSC)C(=O)N[C@@H](CC(N)=O)C(=O)N[C@H](C(N)=O)[C@@H](C)O
B2: mt-95 (peptide)
peptide: HAEGTFISDYSIAMDEIHQKDFVNWLLAQ-NH2
modifications: lactam 16-20; N-terminus assumed
SMILES: CC[C@H](C)[C@H](NC(=O)[C@H](CO)NC(=O)[C@H](Cc1ccc(O)cc1)NC(=O)[C@H](CC(=O)O)NC(=O)[C@H](CO)NC(=O)[C@@H](NC(=O)[C@H](Cc1ccccc1)NC(=O)[C@@H](NC(=O)CNC(=O)[C@H](CCC(=O)O)NC(=O)[C@H](C)NC(=O)[C@@H](N)Cc1c[nH]cn1)[C@@H](C)O)[C@@H](C)CC)C(=O)N[C@@H](C)C(=O)N[C@@H](CCSC)C(=O)N[C@@H](CC(=O)O)C(=O)N[C@H]1CCC(=O)NCCCC[C@@H](C(=O)N[C@@H](CC(=O)O)C(=O)N[C@@H](Cc2ccccc2)C(=O)N[C@H](C(=O)N[C@@H](CC(N)=O)C(=O)N[C@@H](Cc2c[nH]c3ccccc23)C(=O)N[C@@H](CC(C)C)C(=O)N[C@@H](CC(C)C)C(=O)N[C@@H](C)C(=O)N[C@@H](CCC(N)=O)C(N)=O)C(C)C)NC(=O)[C@H](CCC(N)=O)NC(=O)[C@H](Cc2c[nH]cn2)NC(=O)[C@H]([C@@H](C)CC)NC1=O
B3: mt-96 (peptide)
peptide: YAEGTFISDYSIAMDEIHQKDFVNWLLAQ-NH2
modifications: lactam 16-20; N-terminus assumed
SMILES: CC[C@H](C)[C@H](NC(=O)[C@H](CO)NC(=O)[C@H](Cc1ccc(O)cc1)NC(=O)[C@H](CC(=O)O)NC(=O)[C@H](CO)NC(=O)[C@@H](NC(=O)[C@H](Cc1ccccc1)NC(=O)[C@@H](NC(=O)CNC(=O)[C@H](CCC(=O)O)NC(=O)[C@H](C)NC(=O)[C@@H](N)Cc1ccc(O)cc1)[C@@H](C)O)[C@@H](C)CC)C(=O)N[C@@H](C)C(=O)N[C@@H](CCSC)C(=O)N[C@@H](CC(=O)O)C(=O)N[C@H]1CCC(=O)NCCCC[C@@H](C(=O)N[C@@H](CC(=O)O)C(=O)N[C@@H](Cc2ccccc2)C(=O)N[C@H](C(=O)N[C@@H](CC(N)=O)C(=O)N[C@@H](Cc2c[nH]c3ccccc23)C(=O)N[C@@H](CC(C)C)C(=O)N[C@@H](CC(C)C)C(=O)N[C@@H](C)C(=O)N[C@@H](CCC(N)=O)C(N)=O)C(C)C)NC(=O)[C@H](CCC(N)=O)NC(=O)[C@H](Cc2c[nH]cn2)NC(=O)[C@H]([C@@H](C)CC)NC1=O
B4: mt-97 (peptide)
peptide: HAEGTFTSDYSIYMDEIHQKDFVNWLLAQ-NH2
modifications: lactam 16-20; N-terminus assumed
SMILES: CC[C@H](C)[C@H](NC(=O)[C@H](CO)NC(=O)[C@H](Cc1ccc(O)cc1)NC(=O)[C@H](CC(=O)O)NC(=O)[C@H](CO)NC(=O)[C@@H](NC(=O)[C@H](Cc1ccccc1)NC(=O)[C@@H](NC(=O)CNC(=O)[C@H](CCC(=O)O)NC(=O)[C@H](C)NC(=O)[C@@H](N)Cc1c[nH]cn1)[C@@H](C)O)[C@@H](C)O)C(=O)N[C@@H](Cc1ccc(O)cc1)C(=O)N[C@@H](CCSC)C(=O)N[C@@H](CC(=O)O)C(=O)N[C@H]1CCC(=O)NCCCC[C@@H](C(=O)N[C@@H](CC(=O)O)C(=O)N[C@@H](Cc2ccccc2)C(=O)N[C@H](C(=O)N[C@@H](CC(N)=O)C(=O)N[C@@H](Cc2c[nH]c3ccccc23)C(=O)N[C@@H](CC(C)C)C(=O)N[C@@H](CC(C)C)C(=O)N[C@@H](C)C(=O)N[C@@H](CCC(N)=O)C(N)=O)C(C)C)NC(=O)[C@H](CCC(N)=O)NC(=O)[C@H](Cc2c[nH]cn2)NC(=O)[C@H]([C@@H](C)CC)NC1=O
B5: mt-98 (peptide)
peptide: YAEGTFTSDYSIYMDEIHQKDFVNWLLAQ-NH2
modifications: lactam 16-20; N-terminus assumed
SMILES: CC[C@H](C)[C@H](NC(=O)[C@H](CO)NC(=O)[C@H](Cc1ccc(O)cc1)NC(=O)[C@H](CC(=O)O)NC(=O)[C@H](CO)NC(=O)[C@@H](NC(=O)[C@H](Cc1ccccc1)NC(=O)[C@@H](NC(=O)CNC(=O)[C@H](CCC(=O)O)NC(=O)[C@H](C)NC(=O)[C@@H](N)Cc1ccc(O)cc1)[C@@H](C)O)[C@@H](C)O)C(=O)N[C@@H](Cc1ccc(O)cc1)C(=O)N[C@@H](CCSC)C(=O)N[C@@H](CC(=O)O)C(=O)N[C@H]1CCC(=O)NCCCC[C@@H](C(=O)N[C@@H](CC(=O)O)C(=O)N[C@@H](Cc2ccccc2)C(=O)N[C@H](C(=O)N[C@@H](CC(N)=O)C(=O)N[C@@H](Cc2c[nH]c3ccccc23)C(=O)N[C@@H](CC(C)C)C(=O)N[C@@H](CC(C)C)C(=O)N[C@@H](C)C(=O)N[C@@H](CCC(N)=O)C(N)=O)C(C)C)NC(=O)[C@H](CCC(N)=O)NC(=O)[C@H](Cc2c[nH]cn2)NC(=O)[C@H]([C@@H](C)CC)NC1=O
B6: mt-107 (peptide)
peptide: HSQGTFISDYSKYLDEIHQKEFIAWLMNT-NH2
modifications: lactam 16-20; N-terminus assumed
SMILES: CC[C@H](C)[C@H](NC(=O)[C@H](Cc1ccccc1)NC(=O)[C@H](CCC(=O)O)NC(=O)[C@@H]1CCCCNC(=O)CC[C@H](NC(=O)[C@H](CC(=O)O)NC(=O)[C@H](CC(C)C)NC(=O)[C@H](Cc2ccc(O)cc2)NC(=O)[C@H](CCCCN)NC(=O)[C@H](CO)NC(=O)[C@H](Cc2ccc(O)cc2)NC(=O)[C@H](CC(=O)O)NC(=O)[C@H](CO)NC(=O)[C@@H](NC(=O)[C@H](Cc2ccccc2)NC(=O)[C@@H](NC(=O)CNC(=O)[C@H](CCC(N)=O)NC(=O)[C@H](CO)NC(=O)[C@@H](N)Cc2c[nH]cn2)[C@@H](C)O)[C@@H](C)CC)C(=O)N[C@@H]([C@@H](C)CC)C(=O)N[C@@H](Cc2c[nH]cn2)C(=O)N[C@@H](CCC(N)=O)C(=O)N1)C(=O)N[C@@H](C)C(=O)N[C@@H](Cc1c[nH]c2ccccc12)C(=O)N[C@@H](CC(C)C)C(=O)N[C@@H](CCSC)C(=O)N[C@@H](CC(N)=O)C(=O)N[C@H](C(N)=O)[C@@H](C)O
B7: mt-108 (peptide)
peptide: HSQGTFISDYSKALDEIHQKEFIAWLMNT-NH2
modifications: lactam 16-20; N-terminus assumed
SMILES: CC[C@H](C)[C@H](NC(=O)[C@H](Cc1ccccc1)NC(=O)[C@H](CCC(=O)O)NC(=O)[C@@H]1CCCCNC(=O)CC[C@H](NC(=O)[C@H](CC(=O)O)NC(=O)[C@H](CC(C)C)NC(=O)[C@H](C)NC(=O)[C@H](CCCCN)NC(=O)[C@H](CO)NC(=O)[C@H](Cc2ccc(O)cc2)NC(=O)[C@H](CC(=O)O)NC(=O)[C@H](CO)NC(=O)[C@@H](NC(=O)[C@H](Cc2ccccc2)NC(=O)[C@@H](NC(=O)CNC(=O)[C@H](CCC(N)=O)NC(=O)[C@H](CO)NC(=O)[C@@H](N)Cc2c[nH]cn2)[C@@H](C)O)[C@@H](C)CC)C(=O)N[C@@H]([C@@H](C)CC)C(=O)N[C@@H](Cc2c[nH]cn2)C(=O)N[C@@H](CCC(N)=O)C(=O)N1)C(=O)N[C@@H](C)C(=O)N[C@@H](Cc1c[nH]c2ccccc12)C(=O)N[C@@H](CC(C)C)C(=O)N[C@@H](CCSC)C(=O)N[C@@H](CC(N)=O)C(=O)N[C@H](C(N)=O)[C@@H](C)O

These binders were tested against glucagon receptor (UniProt P47871 26-477, limits assumed) (assay: cell-based or functional assay).
Chain of glucagon receptor (P47871 26-477 limits assumed): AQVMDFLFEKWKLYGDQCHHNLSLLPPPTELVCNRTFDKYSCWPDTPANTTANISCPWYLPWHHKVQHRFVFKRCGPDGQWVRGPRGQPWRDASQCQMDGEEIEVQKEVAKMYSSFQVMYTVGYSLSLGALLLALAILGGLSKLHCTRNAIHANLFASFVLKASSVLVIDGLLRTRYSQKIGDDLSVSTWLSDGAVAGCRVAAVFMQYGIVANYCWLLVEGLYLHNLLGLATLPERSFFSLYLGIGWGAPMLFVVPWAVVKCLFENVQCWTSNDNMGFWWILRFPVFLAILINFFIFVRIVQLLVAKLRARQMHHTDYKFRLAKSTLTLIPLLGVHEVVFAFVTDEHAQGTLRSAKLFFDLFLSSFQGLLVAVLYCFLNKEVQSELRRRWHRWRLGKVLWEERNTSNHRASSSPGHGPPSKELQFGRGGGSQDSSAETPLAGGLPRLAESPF

Binder | EC50 | relative activity
B1 | 0.45 nM | 42.2%
B2 | 280 nM | 0.04%
B3 | 61.7 nM | 0.29%
B4 | 4.08 nM | 3.19%
B5 | 957 nM | 0.01%
YAEGTFISDYSIAMDKIHQQDFVNWLLAQKGKKNWLKHNITQ-NH2 [mt-99] | 23300 nM | 0%
YXEGTFISDYSIAMDKIHQQDFVNWLLAQKGKKNWLKHNITQ (C-terminal amide) [mt-100] | 1460 nM | 0.01%
B6 | 0.07 nM | 186%
B7 | 0.19 nM | 68.4%

These binders were tested against GLP-1 receptor (UniProt P43220 24-463, limits assumed) (assay: cell-based or functional assay).

Binder | EC50 | relative activity
B1 | 0.1 nM | 40%
B2 | 48.9 nM | 0.08%
B3 | 92.9 nM | 0.04%
B4 | 2.36 nM | 1.27%
B5 | 2.82 nM | 1.42%
YAEGTFISDYSIAMDKIHQQDFVNWLLAQKGKKNWLKHNITQ-NH2 [mt-99] | 4550 nM | 0%
YXEGTFISDYSIAMDKIHQQDFVNWLLAQKGKKNWLKHNITQ (C-terminal amide) [mt-100] | 552 nM | 0.01%
B6 | 24.8 nM | 0.16%
B7 | 0.32 nM | 12.5%

The binders below were run against T1, GIP receptor (assay: cell-based or functional assay).

Binder | EC50 | relative activity
B1 | 5.18 nM | 1.6%
B2 | 0.465 nM | 10.5%
B3 | 0.058 nM | 84.5%
B4 | 1.75 nM | 2.81%
B5 | 0.196 nM | 25%
YAEGTFISDYSIAMDKIHQQDFVNWLLAQKGKKNWLKHNITQ-NH2 [mt-99] | 0.049 nM | 100%
YXEGTFISDYSIAMDKIHQQDFVNWLLAQKGKKNWLKHNITQ (C-terminal amide) [mt-100] | 0.016 nM | 306%
B6 | 3.37 nM | 0.74%
B7 | 4.78 nM | 0.52%
